Laboratory results reported in the supplement of paper PMC11908140.

B1: library; numbered along this chain (parent)
chain: MRKPRAAVGSGHRKQAASQEGRQKHAKNNSQAKPSACDGLARQPEEVVLQASVSSYHLFRDVAEVTAFRGSLLSWYDQEKRDLPWRRRAEDEMDLDRRAYAVWVSEVMLQQTQVATVINYYTGWMQKWPTLQDLASASLEEVNQLWAGLGYYSRGRRLQEGARKVVEELGGHMPRTAETLQQLLPGVGRYTAGAIASIAFGQATGVVDGNVARVLCRVRAIGADPSSTLVSQQLWGLAQQLVDPARPGDFNQAAMELGATVCTPQRPLCSQCPVESLCRARQRVEQEQLLASGSLSGSPDVEECAPNTGQCHLCLPPSEPWDQTLGVVNFPRKASRKPPREESSATCVLEQPGALGAQILLVQRPNSGLLAGLWEFPSVTWEPSEQLQRKALLQELQRWAGPLPATHLRHLGEVVHTFSHIKLTYQVYGLALEGQTPVTTVPPGARWLTQEEFHTAAVSTAMKKVFRVYQGQQPGTCMGSKRSQVSSPCSRKKPRMGQQVLDNFFRSHISTDAHSLNSAAQ

Variants of: B1
Assay: 8OG:A repair function score (normalized; synonymous = 0, nonsense = -1) (normalized log-likelihood score); higher = more repair activity (WT-like)
Conditions: with 8OG:A DNA repair reporter (GFP) in HEK-293 MUTYH KO cells
Method: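 Saturation mutagenesis (NNN codon scan) of the MUTYH cDNA (521-aa nuclear isoform NM_001048174.1 / NP_001041639), stably expressed under doxycycline induction in HEK-293 MUTYH knockout cells. Cells were co-transfected with an 8OG:A-bearing GFP repair reporter plus mCherry and sorted 72 h later into GFP+ and GFP− bins, three replicates per tile. The Rosace log2 enrichment (GFP+ vs GFP−) was converted per tile to a normalized function score with synonymous variants centered at 0 and nonsense variants (codons 1-471) at -1; low-abundance variants were removed.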

Variant | 8OG:A repair function score
L229P | -0.112
L229K | 0.076
L229S | 0.0557
Q50I | -0.135
Q50P | 0.126
A259K | -0.197
A259H | -0.138
Q351N | -0.125
Q351W | -0.0304
P404F | -0.272
L237S | -0.551
H410V | -0.2
L370S | -0.406
L370T | -0.332
R389N | -0.415
R389D | -0.426
V47R | -0.00231
V47M | -0.0812
V47S | -0.0698
D61C | -0.0189
D61A | -0.0921
A354Y | -0.11
K80P | -0.105
C314V | -0.631

Variant | 8OG:A repair function score
P244V | -0.427
P244T | -0.234
P244C | -0.39
L430A | -0.143
L430Q | -0.561
E433N | -0.0644
R217T | -1.02
G248E | -0.978
T116S | -0.0572
T116K | 0.113
L403G | -0.509
P383Y | -0.0911
L361T | -0.222
G193K | -0.203
G193R | -0.0604
R340Y | -0.205
R340N | -0.24
V230G | -0.152
G444T | -0.00488
S367F | -0.13
S486Y | 0.00541
T449W | -0.634
T449H | -0.131
L355P | -0.132

Variant | 8OG:A repair function score
L355M | -0.0213
G171H | -0.42
N210C | -0.854
G222Q | -0.443
G222C | -0.509
T511F | -0.00618
T511N | -0.0682
I118D | -0.182
E350V | -0.0826
E375R | -0.462
E375K | -0.462
V427Y | -1.2
V328H | -0.251
V328T | -0.077
E342H | 0.0491
A371Q | -0.374
A371D | -0.824
D249V | -0.579
G39M | 0.24
G39E | 0.0199
L501M | 0.0114
K164A | -0.133
K164T | -0.103
N307I | -0.0284

Variant | 8OG:A repair function score
L183N | -0.102
S518Y | 0.0286
Q126F | 0.0114
T260R | -0.0323
T260I | -0.0181
T204D | -0.103
L396F | -0.431
A6Y | -0.0552
R283K | -0.0478
R283A | -0.145
I509M | -0.0347
E287H | -0.047
E287W | -0.0668
F418E | -0.889
M93Y | -0.0084
T460S | -0.019
T460C | -0.0915
K333N | -0.205
K333A | 0.0254
T191G | -0.428
P494M | -0.0511
L295N | -0.00265
I359W | 0.0132
I359G | -0.91

Variant | 8OG:A repair function score
P264E | -0.25
P264K | -0.048
P264L | -0.0962
K481A | -0.00494
L387S | 0.154
R491W | -0.00998
T324I | -0.0894
Y121Q | -0.765
Y121H | -0.853
K492P | 0.0192
P443K | -0.324
G209Q | -0.48
G209R | -0.364
L373E | -0.788
E64L | -0.0405
T228F | -0.051
R409Q | -0.332
A238G | -0.603
V117K | -1.84
P331G | -0.0671
A162M | -0.887
G353S | -0.0386
R81G | -0.905
Q358V | 0.112

Variant | 8OG:A repair function score
Q358M | -0.074
E45G | 0.13
G372T | -0.157
E382R | -0.0901
A334W | -0.28
L411W | -0.28
P316T | -0.057
S487A | 0.0181
S487D | 0.0137
Q252C | -0.576
Q252G | -0.891
T176G | -0.216
C304Y | -0.341
A405I | 0.0761
K390I | -0.265
K390C | 0.0921
K390T | -0.141
R336S | -0.097
S153T | 0.158
P474Y | -0.0117
P474K | -0.0164
E168F | -0.102
Q310P | -0.0353
G412E | -0.631

Variant | 8OG:A repair function score
G412D | -0.162
G412N | -0.34
T476Q | -0.0039
R2Q | -0.0466
R2Y | -0.155
F505S | 0.0199
F505H | -0.0303
Q484P | 0.0115
G401R | -0.272
G401L | -0.214
L241R | -1.03
L241Y | -0.893
F466S | -0.715
A305G | -0.0138
A305N | 0.00434
A305S | -0.019
L349S | -0.842
L349H | -0.39
L349N | -0.957
L349D | -0.966
N366M | -0.0331
Q499T | -0.00713
Q499L | 0.00129
